Test results taken from patent US8563685B2, “Fatty acid formulations and oral delivery of proteins and peptides, and uses thereof” (priority 2004, dated 2013).

Assays:
[1] = test system: chymotrypsin; test: In vitro enzyme (chymotrypsin) resistance, HIM2 and Zn HIM2 complexes; type: in vitro ADME; settings: 37° C., 0.3 mg/mL protein
Experimental: (§1) This sample serves as T=0. […] The half life was calculated using the equation: t1/2:=−0.693/slope.

[2] = test system: chymotrypsin; test: In vitro enzyme (chymotrypsin) resistance, IN105 and Zn IN105 complexes; type: in vitro ADME; settings: 37° C., 0.6 mg/ml protein
Experimental: as §1

Row | Substance | T half [1] [min] | T half [2] [min]
1 | HIM2 (R-type zinc complex): R-type Zn complex of HIM2, 1.1% w/w zinc, 0.1 to 0.25% w/w phenol | 19 to 21 | –
2 | IN105 (R-type zinc complex): R-type Zn complex of IN105, 1.85% w/w zinc, 2.37% w/w phenol (as reaction 9.6.1) | – | 55.3
